Consider two molecules from PMC10120838, “Dual functions of PsmiR172b-PsTOE3 module in dormancy release and flowering in tree peony (Paeonia suffruticosa)”.

The data set concerns the target PsTOE3 (MBP-PsTOE3; PsAP2 in primer table) (Paeonia suffruticosa, UniProt A0A189CP77 1-510). The data set is described as follows: EMSA; poly(dI-dC); DIG Gel Shift Kit (Roche) per manufacturer, probe 0.155 uM, poly(dI-dC); protein suspended in 20 mM Tris-HCl, 0.2 M NaCl, 1 mM EDTA, 10 mM beta-mercaptoethanol; pH and temperature not stated. Conditions: protein: recombinant, purified on Ni-NTA, label: DIG, blunt.

Sequence of PsTOE3 (MBP-PsTOE3; PsAP2 in primer table) (A0A189CP77 entry or part of it): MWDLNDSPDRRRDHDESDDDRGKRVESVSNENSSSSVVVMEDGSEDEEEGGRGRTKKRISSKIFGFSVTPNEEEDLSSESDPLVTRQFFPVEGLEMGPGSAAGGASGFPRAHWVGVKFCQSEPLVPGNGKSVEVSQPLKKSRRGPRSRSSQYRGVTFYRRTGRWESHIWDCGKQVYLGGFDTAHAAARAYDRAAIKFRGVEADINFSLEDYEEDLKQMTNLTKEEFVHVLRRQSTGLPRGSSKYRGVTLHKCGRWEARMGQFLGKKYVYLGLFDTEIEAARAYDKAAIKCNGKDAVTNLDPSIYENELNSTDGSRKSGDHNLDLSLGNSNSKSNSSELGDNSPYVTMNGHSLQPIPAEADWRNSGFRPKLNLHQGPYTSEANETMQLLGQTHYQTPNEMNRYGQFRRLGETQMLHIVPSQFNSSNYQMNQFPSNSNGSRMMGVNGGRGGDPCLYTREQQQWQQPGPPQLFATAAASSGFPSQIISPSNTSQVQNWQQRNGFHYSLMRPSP

B1: mutant C-repeat probe (4x AGCGAC) (dsDNA)
DNA 1: AAGCGACAGCGACAGCGACAGCGAC
DNA 2: GTCGCTGTCGCTGTCGCTGTCGCTT
In the case of B1, the binding result (R oligo S211 is printed as the plain complement (3'-5' order) although the header says 5'-3') is “no binding”.

B2: C-repeat probe of PsEBB1 (4x ACCGAC) (dsDNA)
DNA 1: AACCGACACCGACACCGACACCGAC
DNA 2: GTCGGTGTCGGTGTCGGTGTCGGTT
With B2, the binding result (R oligo S209 is printed as the plain complement (3'-5' order) although the header says 5'-3') is “binds”.
